Measurements published in patent US20220041658A1 (PROTAGONIST THERAPEUTICS, published 2022).
Positions of bridges follow the written chain, without caps; N, C: chain ends. Non-standard residues stand in square brackets, D forms with d. Trp(7-Me) = Cc1cccc2c(C[C@H](N)C(=O)O)c[nH]c12; 2Nal = N[C@@H](Cc1ccc2ccccc2c1)C(=O)O; AEF = NCCOc1ccc(C[C@H](N)C(=O)O)cc1; αMeF = C[C@](N)(Cc1ccccc1)C(=O)O; Cit = NC(=O)NCCC[C@H](N)C(=O)O; Pen = CC(C)(S)[C@H](N)C(=O)O; αMeK = C[C@](N)(CCCCN)C(=O)O; Dab = NCC[C@H](N)C(=O)O; Abu = CC[C@H](N)C(=O)O; Aib = CC(C)(N)C(=O)O; Sar = CNCC(=O)O

These binders were tested against T1, interleukin-23 receptor (IL-23R) (human, UniProt Q5VWK5 24-629) (assay: cell-based or functional assay).
T1 sequence (looked up): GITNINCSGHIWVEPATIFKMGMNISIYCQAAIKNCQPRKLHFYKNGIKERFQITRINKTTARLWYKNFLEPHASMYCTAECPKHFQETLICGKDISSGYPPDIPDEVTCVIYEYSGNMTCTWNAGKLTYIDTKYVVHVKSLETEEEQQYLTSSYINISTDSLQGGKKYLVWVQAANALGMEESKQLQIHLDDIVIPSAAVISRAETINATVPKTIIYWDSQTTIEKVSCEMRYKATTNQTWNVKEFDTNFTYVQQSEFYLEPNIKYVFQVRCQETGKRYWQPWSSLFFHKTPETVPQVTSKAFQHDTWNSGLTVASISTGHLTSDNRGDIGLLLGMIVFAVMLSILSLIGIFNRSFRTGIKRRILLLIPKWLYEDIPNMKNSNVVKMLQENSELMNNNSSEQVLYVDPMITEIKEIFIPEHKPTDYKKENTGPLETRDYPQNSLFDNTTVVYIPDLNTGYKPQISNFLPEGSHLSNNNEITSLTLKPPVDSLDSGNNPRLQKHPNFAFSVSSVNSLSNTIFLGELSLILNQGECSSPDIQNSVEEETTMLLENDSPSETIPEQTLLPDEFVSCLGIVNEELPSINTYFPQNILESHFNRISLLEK

Binder	pStat3 HTRF IC50 [nM]
XNTXXXXXXKNL (not fully specified; Ac-[Pen]-N-T-[W(7-Me)]-[Lys(benzyl)]-[Pen]-Phe[4-(2-aminoethoxy)]-[2-Nal]-[a-MeLys]-[Lys(Ac)]-N-[(D)Leu]-NH2; Pen-Pen disulfide) [Peptide of SEQ ID NO: 318]	1.9
XNTXXXXXXKNL (Ac-[Pen]-N-T-[W(7-Me)]-[Lys(trifluoropropionic)]-[Pen]-Phe[4-(2-aminoethoxy)]-[2-Nal]-[a-MeLys]-[Lys(Ac)]-N-[(D)Leu]-NH2; Pen-Pen disulfide) [Peptide of SEQ ID NO: 319]	0.714
XNTXXXXXXKNL (Ac-[Pen]-N-T-[W(7-Me)]-[Lys(bAla)]-[Pen]-Phe[4-(2-aminoethoxy)]-[2-Nal]-[a-MeLys]-[Lys(Ac)]-N-[(D)Leu]-NH2; Pen-Pen disulfide) [Peptide of SEQ ID NO: 321]	1.04
XNTXXXXXXKNL (Ac-[Pen]-N-T-[W(7-Me)]-[Lys(Aib)]-[Pen]-Phe[4-(2-aminoethoxy)]-[2-Nal]-[a-MeLys]-[Lys(Ac)]-N-[(D)Leu]-NH2; Pen-Pen disulfide) [Peptide of SEQ ID NO: 322]	0.648
Ac-[dR][Abu]QT[Trp(7-Me)]K(Ac)C[AEF][2Nal][αMeK]K(Ac)N[dK][Sar]-NH2 (thioether 2-7 (inferred)) [Peptide of SEQ ID NO: 323]	5.33
Ac-[dR][Abu]QT[Trp(7-Me)]K(Ac)C[AEF][2Nal][αMeK]K(Ac)N-NH2 (thioether 2-7 (inferred)) [Peptide of SEQ ID NO: 326]	18.4
Ac-[dR][Abu]QT[Trp(7-Me)]K(Ac)C[AEF][2Nal][αMeK]K(Ac)N[αMeF]-NH2 (thioether 2-7 (inferred)) [Peptide of SEQ ID NO: 327]	12.7
XNTXQXXXXKPX (Ac-[Pen]-NT-[W(7-Me)]-Q-[Pen]-Phe[4-(2-aminoethoxy)]-[2-Nal]-[a-MeLeu]-[Lys(Ac)]-P-[bA]-NH2; Pen-Pen disulfide) [Peptide of SEQ ID NO: 211]	178
Ac-[Pen]AT[Trp(7-Me)]K(Ac)[Pen][AEF][2Nal][αMeK]K(Ac)N[dL]-NH2 (disulfide 1-6 (inferred)) [Peptide of SEQ ID NO: 328]	0.78
Ac-[Pen]GT[Trp(7-Me)]K(Ac)[Pen][AEF][2Nal][αMeK]K(Ac)N[dL]-NH2 (disulfide 1-6 (inferred)) [Peptide of SEQ ID NO: 329]	0.77
Ac-[Pen]K(Ac)T[Trp(7-Me)]K(Ac)[Pen][AEF][2Nal][αMeK]K(Ac)N[dL]-NH2 (disulfide 1-6 (inferred)) [Peptide of SEQ ID NO: 330]	1.38
Ac-[Pen][Cit]T[Trp(7-Me)]K(Ac)[Pen][AEF][2Nal][αMeK]K(Ac)N[dL]-NH2 (disulfide 1-6 (inferred)) [Peptide of SEQ ID NO: 331]	0.834
Ac-[Pen]LT[Trp(7-Me)]K(Ac)[Pen][AEF][2Nal][αMeK]K(Ac)N[dL]-NH2 (disulfide 1-6 (inferred)) [Peptide of SEQ ID NO: 332]	1.06
Ac-[Pen]PT[Trp(7-Me)]K(Ac)[Pen][AEF][2Nal][αMeK]K(Ac)N[dL]-NH2 (disulfide 1-6 (inferred)) [Peptide of SEQ ID NO: 333]	9.3
Ac-[Pen][Dab](Ac)T[Trp(7-Me)]K(Ac)[Pen][AEF][2Nal][αMeK]K(Ac)N[dL]-NH2 (disulfide 1-6 (inferred)) [Peptide of SEQ ID NO: 335]	0.567
Ac-[Pen]RT[Trp(7-Me)]K(Ac)[Pen][AEF][2Nal][αMeK]K(Ac)N[dL]-NH2 (disulfide 1-6 (inferred)) [Peptide of SEQ ID NO: 336]	1.49
XNTXKXXXXKNL (Ac-[Pen]-[(D)Asn]-T-[W(7-Me)]-[Lys(Ac)]-[Pen]-Phe[4-(2-aminoethoxy)]-[2-Nal]-[a-MeLys]-[Lys(Ac)]-N-[(D)Leu]-NH2; Pen-Pen disulfide) [Peptide of SEQ ID NO: 338]	41.8
Ac-[Pen]NT[Trp(7-Me)][Cit][Pen][AEF][2Nal][αMeK]K(Ac)N[Sar]-NH2 (disulfide 1-6 (inferred)) [Peptide of SEQ ID NO: 339]	6.3
Ac-[Pen]NT[Trp(7-Me)][Cit][Pen][AEF][2Nal][αMeK]K(Ac)N[Aib]G-NH2 (disulfide 1-6 (inferred)) [Peptide of SEQ ID NO: 341]	0.934
Ac-[Pen]NT[Trp(7-Me)][Cit][Pen][AEF][2Nal][αMeK]K(Ac)N[Aib]A-NH2 (disulfide 1-6 (inferred)) [Peptide of SEQ ID NO: 342]	0.664
Ac-[Pen]NT[Trp(7-Me)][Cit][Pen][AEF][2Nal][αMeK]K(Ac)N[Aib]R-NH2 (disulfide 1-6 (inferred)) [Peptide of SEQ ID NO: 343]	1.43
Ac-[Pen]NT[Trp(7-Me)][Cit][Pen][AEF][2Nal][αMeK]K(Ac)N[Aib][dK]-NH2 (disulfide 1-6 (inferred)) [Peptide of SEQ ID NO: 344]	0.724
